This passage reports Kd results from US20240409639A1 (published 2024).

In assay [1] the target is human FcRn. The experiment in a line: BLI (Octet); pH 6.0. In general terms: BLI is a label-free optical method that tracks binding on a fibre tip over time.
The target of a further assay is FcγRI. The experiment in a line: BLI (Octet).
For the next assay, the target named is FcγRIIIa. Nature of the assay: BLI (Octet).
For another assay, the target named is ILT4 HIS. Nature of the assay: BLI (Octet).
A further assay deals with PD-1 HIS. Nature of the assay: BLI (Octet).
Assay [2] deals with human FcRn. The experiment in a line: BLI (Octet); pH 7.2.

B1: CDX-585 (bispecific antibody)
heavy: QVQLVQSGAEVVKPGASVKISCKASGYTFTDYVMHWVRQAPGQSLEWMGVISTYHIPAVYNQKFKGKATMTVDTSTSTVYLELSSLRSEDTAVYYCAREVYGESYYFDVWGQGTTVTVSSASTKGPSVFPLAPSSKSTSGGTAALGCLVKDYFPEPVTVSWNSGALTSGVHTFPAVLQSSGLYSLSSVVTVPSSSLGTQTYICNVNHKPSNTKVDKKVEPKSCDKTHTCPPCPAPEAQGGPSVFLFPPKPKDTLYITREPEVTCVVVDVSHEDPEVKFNWYVDGVEVHNAKTKPREEQYNSTYRVVSVLTVLHQDWLNGKEYKCQVSNKALPAPIEKTISKAKGQPREPQVYTLPPSRDELTKNQVSLTCLVKGFYPSDIAVEWESNGQPENNYKTTPPVLDSDGSFFLYSKLTVDKSRWQQGNVFSCSVMHEALHNHYTQKSLSLSPGKGSSGGGGSDIQMTQSPSSLSASVGDRVTITCRASENIYSYLAWYQQKPGKAPKFLVYNADTLAEGVPSRFSGSGSGTDFTLTISSLQPEDFATYYCQHHYGTPFTFGCGTKLEIKGGGGSGGGGSGGGGSGGGGSQVQLVQSGAEVKKPGASVKVSCKASGYSFTGYTMHWVRQAPGQCLEWMGLINPYTGGTDYNQKFQGRVTMTVDRSTSTAYMELSSLRSEDTAVYYCARERPGGSQFIYYYALDYWGQGTTVTVSS
light: DIVMTQTPLSLPVTPGEPASISCRSSQSIVHSAGNTYLEWYLQKPGQSPQLLIYKVSNRFSGVPDRFSGSGSGTDFTLKISRVEAEDVGVYYCFQGSHVPYTFGGGTKVEIKRTVAAPSVFIFPPSDEQLKSGTASVVCLLNNFYPREAKVQWKVDNALQSGNSQESVTEQDSKDSTYSLSSTLTLSKADYEKHKVYACEVTHQGLSSPVTKSFNRGEC
Turning to B1, the Kd (as a rule, the free concentration of one partner at which half of the binding sites on the other are occupied at equilibrium, for simple one-to-one binding) in the assay with human FcRn [1] is 2.99 nM; with FcγRI, 1380 nM; with FcγRIIIa it was 4.91 µM; with ILT4 HIS it was 0.305 nM; with PD-1 HIS, 0.063 nM; with human FcRn [2], 114 nM.
